B2: Pyrobaculum calidifontis crenactin (natural protein, UniProt A3MWN5 1-432, looked up)
chain: MGVISDAYRLKYTFGVDFGTSYVKYGPITLNEPKMVQTRGLFLRDLPESVKMRIPPDVLARGLVVGDEEVRKYLSSVRDVQRNLKYPLKDGVARRDDEEAWRVLKELARYTLAQFPVSDPEFAGWLVAVALSALAPDYMYKAIFDIYDELASEFKIYAVTILPQPLAVAIAENAVNCVIVEGGHGNIQVAPISFALIREGLVALNRGGAEANAITREILKDIGYSDIAREEYAVEVVKRAVGLVPRRLKEAIRAAKSDPDRFVTKVRLSPVVEVEIPREYAWTRFLIGEIVFDPNHEEIKSYIEQSRLRIENAVIGDVTLYGEMDVASAIITSLRNVSVEIQERVASQIILSGGAFSWRVPPGMEDVAADSVTRVKIALEEKSPALASKVEVRLVSEPQYSVWRGAVIYGYALPLSLEWSDTTREGWRFPRR
notes: codon-optimised gene in pOPIN-S; Forms double-stranded helical filaments with ATP and MgCl2; The construct used for co-expression with arcadin-2 is not described; also called PCC; source: E. coli C41(DE3), purified (Ni-NTA, elution by SUMO tag cleavage with SENP1, Sephacryl S300); also co-expressed with arcadin-2 and purified as a complex; not shown: His6, N-terminal, cleaved; SUMO, N-terminal, …

The target in data set [1] is B2. In words: SPR; crenactin immobilised by amide coupling on CM5 chip (~700 RU), Biacore T200, PBS-0.005% Tween 20, 20°C; arcadin-2 or arcadin-2ΔC in 1:2 dilution series from 2 µM; kinetic fits, Kd = koff/kon. As to conditions: both partners purified.
Data set [2] deals with the molecule itself. In words: cryo-EM structure; crenactin 0.5-1 mg/ml in 50 mM NH4HCO3, 20 mM KCl, polymerised with 2 mM ATP and 4 mM MgCl2 for 30 min on ice; helical reconstruction in RELION 2.0.
Data set [3] deals with B2. The data set is described as follows: crystal structure; crenactin at 7 mg/ml mixed with arcadin-2 peptide at molar ratio 1 to 3; 0.31 M sodium acetate, 12.8% PEG 4000, 0.1 M sodium acetate pH 4.5; 1.6 Å. To be noted: both partners purified.

B1: Pyrobaculum calidifontis arcadin-2 (natural protein, UniProt A3MWN6 1-203, looked up)
chain: MDFPKVLLIRHFTEVLGMKYAGEGGEVLWFEEGLNRVAVGIYFTDLYEEAELYKRVGALMGLGASKVFLAVLPDALAFVDPRYFKANGVGLVVVDPAKGVDGVEVKIFARARPAAVEPLKIDAVKAALHEYLASELKRVEESLFEKVRRYVDQRVEEVKRALQAVEEAKRAAPPVQRAAAESAQEPRGGIGENEWVKILRSKR
notes: arcadin-2, Pyrobaculum calidifontis, NCBI WP_011850311.1; untagged, native protein from pHis17; The construct used for co-expression with crenactin is not described; also called full-length arcadin-2; source: E. coli C41(DE3), purified (heat step 60°C, ammonium sulphate precipitation, Sephacryl S300); also co-expressed with crenactin and purified as a complex
Regarding B1, the dissociation constant (Kd) (commonly the free concentration of one partner at which half of the binding sites on the other are occupied at equilibrium, for simple one-to-one binding) in data set [1] came to 31 nM.
Take B2: the binding result in data set [2] is “binds”.

B3: arcadin-2 C-terminal peptide (residues 187-203) (peptide, UniProt A3MWN6 187-203, looked up)
peptide: RGGIGENEWVKILRSKR
notes: arcadin-2, Pyrobaculum calidifontis, NCBI WP_011850311.1, residues R187 to R203 (the last 17 amino acids); also called arcadin-2 peptide; C-peptide; source: synthetic peptide (Generon, U.K)
On to B3, for which the binding result in data set [3] is “binds”.

Values taken from paper PMC5173319, “Crenactin forms actin-like double helical filaments regulated by arcadin-2” (eLife, 2016).
